Reference: patent US20180155451A1 (published 2018)

T1: FcγRIIa R (extracellular domain, C-terminal His tag) (human, UniProt P12318 34-217)
T1 construct: extracellular domain; also called FcgRIIa R type; 2aR; not shown: His tag attached to the C terminus
T1 sequence (looked up): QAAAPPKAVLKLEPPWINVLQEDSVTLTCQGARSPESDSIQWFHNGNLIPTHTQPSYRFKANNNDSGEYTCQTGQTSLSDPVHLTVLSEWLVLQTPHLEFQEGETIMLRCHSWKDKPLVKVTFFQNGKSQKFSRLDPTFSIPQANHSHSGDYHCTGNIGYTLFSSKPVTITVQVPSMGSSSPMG

T2: FcγRIIb (extracellular domain, C-terminal His tag) (human, UniProt P31994 43-217)
T2 construct: extracellular domain; also called FcgRIIb; 2b; not shown: His tag attached to the C terminus
T2 sequence (looked up): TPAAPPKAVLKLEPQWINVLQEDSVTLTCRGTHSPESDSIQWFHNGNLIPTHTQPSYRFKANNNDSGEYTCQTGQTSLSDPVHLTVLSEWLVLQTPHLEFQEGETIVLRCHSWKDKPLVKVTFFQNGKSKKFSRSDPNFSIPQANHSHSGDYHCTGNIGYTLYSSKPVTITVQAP

T3: FcγRIIa H (human, UniProt P12318 34-217)
T3 construct: extracellular domain; also called FcgRIIa H type; 2aH
T3 sequence (looked up): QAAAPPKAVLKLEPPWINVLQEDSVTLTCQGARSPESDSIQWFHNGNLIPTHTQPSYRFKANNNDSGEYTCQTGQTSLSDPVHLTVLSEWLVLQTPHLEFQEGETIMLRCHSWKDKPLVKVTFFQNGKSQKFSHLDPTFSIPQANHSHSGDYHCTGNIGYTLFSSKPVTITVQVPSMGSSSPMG

T4: FcγRIIb (human, UniProt P31994 43-217)
T4 construct: extracellular domain; also called FcgRIIb; 2b
T4 sequence (looked up): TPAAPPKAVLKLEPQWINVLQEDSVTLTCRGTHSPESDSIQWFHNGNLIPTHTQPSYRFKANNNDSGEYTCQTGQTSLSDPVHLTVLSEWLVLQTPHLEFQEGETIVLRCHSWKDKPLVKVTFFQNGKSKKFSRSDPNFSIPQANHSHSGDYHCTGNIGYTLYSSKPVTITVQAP


Legend:
[1] = target: T1, FcγRIIa R (extracellular domain, …); experiment: SPR (Biacore), antibody captured on antigen-peptide chip, FcγR as analyte; relative binding amount
[2] = target: T2, FcγRIIb (extracellular domain, …); experiment: as above
[3] = target: T1, FcγRIIa R (extracellular domain, …); experiment: ratio of He/Con_2aR to He/Con_2b (FcγRIIb); SPR relative binding
Method: The heterodimerized antibodies He Abs in which one of the H chains was introduced with an alteration were assayed for their binding activities to each activating FcγR and inhibitory FcγR according to the method described in Example 4. […] The activating FcγRs in FIGS. 26, 27, 28, and 29 are FcγRIa, FcγRIIa (R), FcγRIIa (H), and FcγRIIIa, respectively.
Analysis of interaction between objective antibody and the FcγR was carried out using Biacore T100 (GE Healthcare). HBS-EP+ (GE Healthcare) was used as the running buffer, and the measurement temperature was set to 25° C. Chips produced by immobilizing the antigen peptide by the amine coupling method to a Series S Sencor Chip CM5 (GE Healthcare), or alternatively, chips produced by allowing preliminarily biotinylated antigen peptides to interact with and immobilize onto a Series S Sensor Chip SA (certified) (GE Healthcare) were used. Antibodies of interest were captured onto an antigen peptide-immobilized chip, and allowed to interact to each FcγR diluted with running buffer. To regenerate and repeatedly use the chip, the antibodies captured on the chip were washed off by reacting 10 mM glycine-HCl, pH 1.5.

FcγRIIa H [4] = target: T3, FcγRIIa H; experiment: ratio of He/Con_2aH to He/Con_2b (relative SPR binding to FcγRIIa H over that of the same antibody to FcγRIIb)
FcγRIIa H [5] = target: T3, FcγRIIa H; experiment: SPR (Biacore), antibody captured on antigen-peptide chip, FcγR as analyte; binding relative to GpH7-A5/GpH7-B3/GpL16-k0 = 100
FcγRIIb = target: T4, FcγRIIb; experiment: as above

Binder	He/Con_2aR [1]	He/Con_2b [2]	He_2aR/2b (IIaR/IIb) [3]	He_2aH/2b (IIaH/IIb) (FcγRIIa H [4])	He/Con_2aH (FcγRIIa H [5])	He/Con_2b (FcγRIIb)
GpH7-A5/GpH7-B3 variant D265_04F/GpL16-k0 (antibody, human IgG1, kappa, Heterodimerized anti-glypican-3 IgG1; substitution in only one H chain (the GpH7-B3 chain); also called He Ab) heavy 1: not shown heavy 2: not shown light: DIVMTQSPLSLPVTPGEPASISCQASESLVHSNRNTYLHWYLQKPGQSPQLLIYKVSNRFSGVPDRFSGSGSGTDFTLKISRVEAEDVGVYYCSQNTHVPPTFGQGTKVEIERTVAAPSVFIFPPSDEQLKSGTASVVCLLNNFYPREAKVQWKVDNALQSGNSQESVTEQDSKDSTYSLSSTLTLSKADYEKHKVYACEVTHQGLSSPVTKSFNRGEC	–	–	–	1.28	4.1 % of HeCon Ab	3.2 % of HeCon Ab
GpH7-A5/GpH7-B3 variant D265_13S/GpL16-k0 (antibody, human IgG1, kappa, Heterodimerized anti-glypican-3 IgG1; substitution in only one H chain (the GpH7-B3 chain); also called He Ab) heavy 1: not shown heavy 2: not shown light: DIVMTQSPLSLPVTPGEPASISCQASESLVHSNRNTYLHWYLQKPGQSPQLLIYKVSNRFSGVPDRFSGSGSGTDFTLKISRVEAEDVGVYYCSQNTHVPPTFGQGTKVEIERTVAAPSVFIFPPSDEQLKSGTASVVCLLNNFYPREAKVQWKVDNALQSGNSQESVTEQDSKDSTYSLSSTLTLSKADYEKHKVYACEVTHQGLSSPVTKSFNRGEC	–	–	–	1.75	19.8 % of HeCon Ab	11.3 % of HeCon Ab
GpH7-A5/GpH7-B3 variant D265_06M/GpL16-k0 (antibody, human IgG1, kappa, Heterodimerized anti-glypican-3 IgG1; substitution in only one H chain (the GpH7-B3 chain); also called He Ab) heavy 1: not shown heavy 2: not shown light: DIVMTQSPLSLPVTPGEPASISCQASESLVHSNRNTYLHWYLQKPGQSPQLLIYKVSNRFSGVPDRFSGSGSGTDFTLKISRVEAEDVGVYYCSQNTHVPPTFGQGTKVEIERTVAAPSVFIFPPSDEQLKSGTASVVCLLNNFYPREAKVQWKVDNALQSGNSQESVTEQDSKDSTYSLSSTLTLSKADYEKHKVYACEVTHQGLSSPVTKSFNRGEC	–	–	–	1.35	13.5 % of HeCon Ab	10 % of HeCon Ab
GpH7-A5/GpH7-B3 variant D265_12R/GpL16-k0 (antibody, human IgG1, kappa, Heterodimerized anti-glypican-3 IgG1; substitution in only one H chain (the GpH7-B3 chain); also called He Ab) heavy 1: not shown heavy 2: not shown light: DIVMTQSPLSLPVTPGEPASISCQASESLVHSNRNTYLHWYLQKPGQSPQLLIYKVSNRFSGVPDRFSGSGSGTDFTLKISRVEAEDVGVYYCSQNTHVPPTFGQGTKVEIERTVAAPSVFIFPPSDEQLKSGTASVVCLLNNFYPREAKVQWKVDNALQSGNSQESVTEQDSKDSTYSLSSTLTLSKADYEKHKVYACEVTHQGLSSPVTKSFNRGEC	–	–	–	1.87	28 % of HeCon Ab	15 % of HeCon Ab
GpH7-A5/GpH7-B3 variant D265_14T/GpL16-k0 (antibody, human IgG1, kappa, Heterodimerized anti-glypican-3 IgG1; substitution in only one H chain (the GpH7-B3 chain); also called He Ab) heavy 1: not shown heavy 2: not shown light: DIVMTQSPLSLPVTPGEPASISCQASESLVHSNRNTYLHWYLQKPGQSPQLLIYKVSNRFSGVPDRFSGSGSGTDFTLKISRVEAEDVGVYYCSQNTHVPPTFGQGTKVEIERTVAAPSVFIFPPSDEQLKSGTASVVCLLNNFYPREAKVQWKVDNALQSGNSQESVTEQDSKDSTYSLSSTLTLSKADYEKHKVYACEVTHQGLSSPVTKSFNRGEC	–	–	–	1.5	24.1 % of HeCon Ab	16 % of HeCon Ab

Second part, the binder after the results:

He/Con_2aR [1]	He/Con_2b [2]	He_2aR/2b (IIaR/IIb) [3]	He_2aH/2b (IIaH/IIb) (FcγRIIa H [4])	He/Con_2aH (FcγRIIa H [5])	He/Con_2b (FcγRIIb)	Binder
69.2 % of control (GpH7-A5/GpH7-B3/GpL16-k0 = 100)	49.4 % of control (GpH7-A5/GpH7-B3/GpL16-k0 = 100)	1.4	–	–	–	GpH7-A5/GpH7-B3 variant S239_16H/GpL16-k0 (antibody, human IgG1, kappa, Heterodimerized anti-glypican-3 IgG1; alteration in only one H chain (GpH7-B3 side); also called He Ab) heavy 1: not shown heavy 2: not shown light: DIVMTQSPLSLPVTPGEPASISCQASESLVHSNRNTYLHWYLQKPGQSPQLLIYKVSNRFSGVPDRFSGSGSGTDFTLKISRVEAEDVGVYYCSQNTHVPPTFGQGTKVEIERTVAAPSVFIFPPSDEQLKSGTASVVCLLNNFYPREAKVQWKVDNALQSGNSQESVTEQDSKDSTYSLSSTLTLSKADYEKHKVYACEVTHQGLSSPVTKSFNRGEC
–	–	–	6.07	3.7 % of HeCon Ab	0.6 % of HeCon Ab	GpH7-A5/GpH7-B3 variant D265_15Y/GpL16-k0 (antibody, human IgG1, kappa, Heterodimerized anti-glypican-3 IgG1; substitution in only one H chain (the GpH7-B3 chain); also called He Ab) heavy 1: not shown heavy 2: not shown light: DIVMTQSPLSLPVTPGEPASISCQASESLVHSNRNTYLHWYLQKPGQSPQLLIYKVSNRFSGVPDRFSGSGSGTDFTLKISRVEAEDVGVYYCSQNTHVPPTFGQGTKVEIERTVAAPSVFIFPPSDEQLKSGTASVVCLLNNFYPREAKVQWKVDNALQSGNSQESVTEQDSKDSTYSLSSTLTLSKADYEKHKVYACEVTHQGLSSPVTKSFNRGEC
